Reference: the Human Domainome abundance scans (Beltran et al. 2025)
± gives the uncertainty stated by the source.

B1: Intersectin-1, residues 1156 to 1213; numbered along this chain, Q15811 (parent)
chain: AVCQVIGMYDYTAQNDDELAFNKGQIINVLNKEDPDWWKGEVNGQVGLFPSNYVKLTT

Variants of: B1
Test: abundance fitness (aPCA) (normalised: wild type 0, dead -1); higher = more abundant; growth selection in yeast, the domain comes from the species named
Settings: Homo sapiens

Point of comparison: Q45C, abundance fitness -0.03 ± 0.15. Against it:
- V46M — lower, -0.396 ± 0.18
- V46L — lower, -0.499 ± 0.11
- V46C — lower, -0.503 ± 0.12
- V46A — lower, -0.505 ± 0.091
- V46K — within error, -0.306 ± 0.13
- V46R — lower, -0.375 ± 0.09
- V46W — lower, -0.892 ± 0.19
- V46S — lower, -0.296 ± 0.09
- V46F — lower, -0.463 ± 0.19
- V46T — lower, -0.337 ± 0.12
- V46H — lower, -0.562 ± 0.26
- V46Q — within error, -0.242 ± 0.14
- V46D — lower, -0.668 ± 0.16
- V46E — lower, -0.412 ± 0.13
- V46N — lower, -0.703 ± 0.29
- V46Y — within error, -0.34 ± 0.17
- V46I — within error, -0.006 ± 0.13
- V46G — lower, -0.712 ± 0.093
- V42T — within error, -0.299 ± 0.17
- V42H — within error, -0.237 ± 0.17
- V42P — lower, -0.72 ± 0.26
- V42M — within error, -0.093 ± 0.18
- V42Y — within error, 0.042 ± 0.19
- V42N — lower, -0.756 ± 0.48
- V42R — within error, -0.274 ± 0.1
- V42C — within error, 0.091 ± 0.13
- V42A — within error, 0.041 ± 0.093
- V42K — within error, -0.405 ± 0.33
- V42E — lower, -0.949 ± 0.22
- V42G — lower, -0.62 ± 0.094
- V42I — within error, -0.048 ± 0.13
- V42Q — lower, -0.617 ± 0.32
- V42D — lower, -0.663 ± 0.17
- V42L — within error, 0.018 ± 0.1
- V42W — lower, -0.811 ± 0.21
- G44H — lower, -0.658 ± 0.23
- G44S — lower, -0.677 ± 0.1
- G44L — lower, -0.879 ± 0.13
- G44M — lower, -0.88 ± 0.17
- G44E — lower, -0.911 ± 0.17
- G44N — within error, -0.219 ± 0.19
- G44K — lower, -0.981 ± 0.25
- G44T — lower, -0.92 ± 0.18
- G44Q — lower, -0.613 ± 0.14
- G44D — lower, -0.397 ± 0.12
- G44A — lower, -0.56 ± 0.11
- G44Y — lower, -0.734 ± 0.22
- G44W — lower, -0.832 ± 0.15
- G44I — lower, -0.797 ± 0.21
- G44P — lower, -0.806 ± 0.17
- G44C — lower, -0.682 ± 0.15
- G44R — lower, -0.83 ± 0.1
- E41N — lower, -0.889 ± 0.25
- E41Y — lower, -0.887 ± 0.23
- E41H — lower, -0.495 ± 0.28
- E41P — lower, -1 ± 0.21
- E41V — lower, -0.681 ± 0.12
- E41Q — lower, -0.863 ± 0.24
- E41K — lower, -0.456 ± 0.15
- E41C — lower, -0.787 ± 0.2
- E41W — lower, -0.642 ± 0.15
- E41G — lower, -0.842 ± 0.11
- E41A — lower, -0.568 ± 0.12
- E41I — lower, -0.936 ± 0.29
- E41D — lower, -1.11 ± 0.41
- E41F — lower, -1.22 ± 0.3
- E41R — lower, -0.746 ± 0.097
- E41S — lower, -0.299 ± 0.1
- W38G — lower, -0.822 ± 0.11
- W38Y — lower, -0.791 ± 0.2
- W38M — lower, -0.733 ± 0.24
- W38E — lower, -0.779 ± 0.23
- W38T — lower, -0.892 ± 0.17
- W38F — lower, -0.859 ± 0.2
- W38N — lower, -0.644 ± 0.2
- W38H — lower, -0.793 ± 0.21
- W38K — lower, -0.671 ± 0.23
- W38I — lower, -1.03 ± 0.33
- W38P — lower, -0.853 ± 0.22
- W38D — lower, -0.674 ± 0.2
- W38R — lower, -1.08 ± 0.19
- W38S — lower, -0.763 ± 0.12
- W38C — lower, -0.793 ± 0.22
- W38A — lower, -0.533 ± 0.12
- W38Q — lower, -0.715 ± 0.21
- W38L — lower, -0.737 ± 0.12
- W38V — lower, -0.906 ± 0.14
- G47H — lower, -0.943 ± 0.34
- G47D — lower, -0.833 ± 0.14
- G47E — lower, -0.853 ± 0.15
- G47N — lower, -0.651 ± 0.24
- G47C — lower, -0.974 ± 0.2
- G47K — lower, -0.582 ± 0.16
- G47F — lower, -1.01 ± 0.24
- G47P — lower, -0.867 ± 0.18
- G47Q — lower, -0.6 ± 0.24
- G47I — lower, -0.846 ± 0.17
- G47A — lower, -0.755 ± 0.12
- G47L — lower, -0.881 ± 0.13
- Q45T — within error, -0.169 ± 0.13
- Q45L — within error, -0.28 ± 0.1
- Q45W — lower, -0.537 ± 0.14
- Q45I — within error, -0.1 ± 0.13
- Q45S — within error, -0.198 ± 0.1
- Q45V — within error, 0.008 ± 0.084
- Q45F — lower, -0.387 ± 0.17
- Q45H — within error, -0.398 ± 0.22
- Q45P — lower, -0.765 ± 0.17
- Q45N — within error, 0.109 ± 0.16
- Q45R — within error, -0.043 ± 0.089
- Q45E — within error, -0.149 ± 0.13
- Q45K — within error, 0.084 ± 0.14
- Q45M — within error, -0.023 ± 0.13
- Q45Y — lower, -0.411 ± 0.16
- Q45A — within error, 0.016 ± 0.09
- Q45G — lower, -0.662 ± 0.11
- Q45D — within error, 0.075 ± 0.17
- K39V — within error, -0.448 ± 0.48
- N43R — lower, -0.436 ± 0.1
- N43Q — lower, -0.36 ± 0.15
- N43A — within error, -0.263 ± 0.1
- N43C — lower, -0.541 ± 0.16
- N43H — within error, -0.08 ± 0.18
- N43E — within error, -0.189 ± 0.12
- N43F — lower, -0.799 ± 0.24
- N43Y — lower, -0.734 ± 0.16
- N43D — the same, -0.03 ± 0.14
- N43L — lower, -0.412 ± 0.11
- N43S — within error, -0.294 ± 0.12
- N43G — within error, -0.241 ± 0.084
- N43K — lower, -0.411 ± 0.14
- N43I — lower, -0.93 ± 0.2
- N43V — lower, -0.794 ± 0.12
- N43T — lower, -0.85 ± 0.16
- N43W — lower, -1.06 ± 0.29
- N43M — lower, -0.56 ± 0.13
- N43P — lower, -0.736 ± 0.19
- G40A — lower, -0.753 ± 0.12
- G40V — lower, -0.891 ± 0.14
- G40M — lower, -0.658 ± 0.17
- G40K — lower, -0.848 ± 0.19
- G40W — lower, -0.981 ± 0.18
- G40L — lower, -0.783 ± 0.12
- G40D — lower, -0.722 ± 0.19
- G40S — lower, -0.839 ± 0.11
- G40I — lower, -0.752 ± 0.26
- G40Y — lower, -0.73 ± 0.19
- G40F — lower, -0.953 ± 0.3
- G40T — lower, -0.56 ± 0.17
- G40E — lower, -0.769 ± 0.16
- G40P — lower, -0.591 ± 0.16
- G40H — lower, -0.832 ± 0.21
- W37L — lower, -0.339 ± 0.085
- W37M — within error, 0.004 ± 0.12
- W37T — within error, -0.276 ± 0.13
- W37Y — within error, -0.058 ± 0.13
- W37Q — within error, -0.223 ± 0.13
- W37K — lower, -0.792 ± 0.2
- W37I — within error, -0.022 ± 0.15
- W37H — lower, -0.887 ± 0.19
- W37S — lower, -0.778 ± 0.12
- W37G — lower, -0.72 ± 0.099
- W37E — lower, -0.737 ± 0.15
- W37P — lower, -0.947 ± 0.19
- W37R — lower, -0.49 ± 0.084
- W37F — within error, -0.307 ± 0.18
